Experimental data reported in the supplement of paper PMC10567573.

B1: LYSMD4 (parent)
chain: LLQRELAQEDSLNKLALQYGCKVA
B2: FAM50A (parent)
chain: HIFPASRWEPYDPEKKWDKYTIR
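Note: lentivirally expressed fusions sorted by FACS into six bins by GFP to DsRed ratio, PSI derived from sequencing read proportions per bin multiplied by bin number.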

Variants of: B1
Assay: protein stability index of a GFP-peptide fusion (GPS, HEK-293T) (PSI 1-6); higher = more stable
Settings: c terminus: a fixed tail appended
A16E showed a protein stability index of 1.65. A16Y showed a protein stability index of 1.26. L2K showed a protein stability index of 2.6. Work on L2Y yielded a protein stability index of 1.61. For L2S, the protein stability index was 2.06. With L2F the protein stability index was 2.25. Work on L2P yielded a protein stability index of 2.31. L2M showed a protein stability index of 2.27. With L2T the protein stability index was 1.91. In the case of Q3L, the protein stability index is reported as 1.59. Variant Q3G has a protein stability index of 2.85. In the case of E9M, the protein stability index is reported as 1.85. Work on E9H yielded a protein stability index of 2.54. Variant E9A has a protein stability index of 1.53. E9I gave a protein stability index of 2.69. With E9R the protein stability index was 1.94. For E9N, the protein stability index was 2.4. For E9L, the protein stability index was 3.17. In the case of E9P, the protein stability index is reported as 1.63. V23Y showed a protein stability index of 2.45. Variant V23H has a protein stability index of 2.77. V23N gave a protein stability index of 3.62. Variant V23T has a protein stability index of 2.58. With V23E the protein stability index was 3.4. With V23F the protein stability index was 2.96. Variant V23S has a protein stability index of 2.9. Work on V23R yielded a protein stability index of 2.47. V23G gave a protein stability index of 2.35. Variant L17C has a protein stability index of 1.49. Variant L17A has a protein stability index of 1.84. L17F gave a protein stability index of 3.31. In the case of L17I, the protein stability index is reported as 1.45. L17N showed a protein stability index of 1.57. Variant L17G has a protein stability index of 2.98. Variant L17W has a protein stability index of 2.65. With L17T the protein stability index was 1.09. In the case of L17E, the protein stability index is reported as 1.82. Work on Q18W yielded a protein stability index of 2.51. Q18T showed a protein stability index of 1.18. In the case of Q18Y, the protein stability index is reported as 2.22. For Q18A, the protein stability index was 1.65. Work on Q18V yielded a protein stability index of 2.25. Variant Q18I has a protein stability index of 2.4. Work on A7P yielded a protein stability index of 1.97. A7K showed a protein stability index of 2.14. Work on A7E yielded a protein stability index of 1.8. Work on L1P yielded a protein stability index of 1.51. Variant K22H has a protein stability index of 3.15. K22N gave a protein stability index of 2.65. With K22P the protein stability index was 3.45. In the case of K22L, the protein stability index is reported as 1.62. In the case of L6C, the protein stability index is reported as 2.02. L6V showed a protein stability index of 1.62. For L6N, the protein stability index was 2.24. With L6Y the protein stability index was 1.92. L6H showed a protein stability index of 2.39. Variant Y19D has a protein stability index of 4.57. For Y19M, the protein stability index was 2.02. Y19F gave a protein stability index of 2.06. With Y19K the protein stability index was 2.11. L15F gave a protein stability index of 1.07. With L15G the protein stability index was 3.11. In the case of L15I, the protein stability index is reported as 2.11. L15N gave a protein stability index of 3.75. For L15M, the protein stability index was 2.85. Work on R4C yielded a protein stability index of 3.8. Work on R4Y yielded a protein stability index of 3.28. For R4D, the protein stability index was 2.08. For R4H, the protein stability index was 1.56. Variant R4P has a protein stability index of 2.06. Work on E5T yielded a protein stability index of 2.55. Variant E5K has a protein stability index of 1.76. For E5Q, the protein stability index was 1. With L12V the protein stability index was 2.31. L12S showed a protein stability index of 3.54. Work on L12E yielded a protein stability index of 3.83. With L12N the protein stability index was 3.52. In the case of L12K, the protein stability index is reported as 2.02. Variant L12F has a protein stability index of 2.33. Variant N13P has a protein stability index of 1.95. For N13D, the protein stability index was 1.03. Variant N13S has a protein stability index of 1.84. N13T gave a protein stability index of 1.3. In the case of N13C, the protein stability index is reported as 2.49. In the case of N13R, the protein stability index is reported as 2.23. Work on N13K yielded a protein stability index of 1.94. S11I gave a protein stability index of 1.04. S11P showed a protein stability index of 1.48. In the case of S11T, the protein stability index is reported as 1.38. In the case of S11Y, the protein stability index is reported as 2.28. Q8H showed a protein stability index of 1.54. Work on Q8F yielded a protein stability index of 1.59. With Q8N the protein stability index was 3.38. Q8S showed a protein stability index of 2.25. Q8I gave a protein stability index of 1.89. In the case of D10G, the protein stability index is reported as 1.9. In the case of D10K, the protein stability index is reported as 1.86. Variant A24V has a protein stability index of 3.02. With A24N the protein stability index was 1.98. A24H gave a protein stability index of 1.03. Work on A24K yielded a protein stability index of 1.82. C21L showed a protein stability index of 1.95. With C21P the protein stability index was 2.59. With C21S the protein stability index was 2.49. Work on C21T yielded a protein stability index of 3.03. With C21I the protein stability index was 1.91. Variant G20K has a protein stability index of 1.62. Variant G20D has a protein stability index of 2.94. Variant G20S has a protein stability index of 1.72. Work on G20N yielded a protein stability index of 2.37. Work on G20I yielded a protein stability index of 2.42. Work on G20F yielded a protein stability index of 1.13. Variant K14C has a protein stability index of 2.37. Work on K14G yielded a protein stability index of 2.91. Work on K14R yielded a protein stability index of 1. Variant K14S has a protein stability index of 1.75. K14Q gave a protein stability index of 2.22.

Variants of: B2
Assay: as above
Settings: c terminus: native
R7I gave a protein stability index of 1.48. In the case of D18Q, the protein stability index is reported as 2. For H1K, the protein stability index was 1.08. Variant H1N has a protein stability index of 2.77. K16P gave a protein stability index of 2.48. K16Q gave a protein stability index of 2.79. For K15N, the protein stability index was 1.71. Variant K15V has a protein stability index of 2.1. In the case of E14C, the protein stability index is reported as 2. In the case of E14P, the protein stability index is reported as 2.2. For K19F, the protein stability index was 2.25. With K19V the protein stability index was 1.31. Variant K19P has a protein stability index of 2.3. Variant D12C has a protein stability index of 1.89. Work on D12T yielded a protein stability index of 2.11. Variant D12R has a protein stability index of 2.07. S6P showed a protein stability index of 4.97. Work on W8L yielded a protein stability index of 3.38. In the case of W8K, the protein stability index is reported as 2.96. In the case of W8T, the protein stability index is reported as 4.03. E9F gave a protein stability index of 2.42. E9D gave a protein stability index of 1.85. With A5F the protein stability index was 2.24. A5E showed a protein stability index of 1.96. In the case of I2Q, the protein stability index is reported as 3.11. Work on I2Y yielded a protein stability index of 2.36. Work on R23V yielded a protein stability index of 2.27. In the case of R23F, the protein stability index is reported as 1.85. Variant Y11D has a protein stability index of 2.74. In the case of Y11S, the protein stability index is reported as 2.83. Variant T21P has a protein stability index of 2.36. For T21R, the protein stability index was 2.38. In the case of T21S, the protein stability index is reported as 1.89. Variant T21A has a protein stability index of 2.08. Work on I22D yielded a protein stability index of 2.02. With I22N the protein stability index was 3.07. With I22R the protein stability index was 1.59. For I22W, the protein stability index was 2.06. For P13Q, the protein stability index was 1.74. Variant P13W has a protein stability index of 1.25. P10V gave a protein stability index of 1.94. Work on P10M yielded a protein stability index of 1.82. For F3G, the protein stability index was 4.42. F3V gave a protein stability index of 2.31. F3K showed a protein stability index of 2.47. Variant F3E has a protein stability index of 2.75. Work on F3C yielded a protein stability index of 2.54. For F3H, the protein stability index was 1.96. Variant P4L has a protein stability index of 2.56. P4V showed a protein stability index of 1.79.
